Measured values from patent US20090092640A1 (UNIVERSITY OF CHICAGO, published 2009).

Molecular target: T1, mutant murine LIGHT (a.a. 79-82, EKLI, deleted), expressed on the cell surface (murine, UniProt Q9QYH9 1-239)
T1 construct: The deletion of a.a; 79-82 is written as two ranges of the natural protein; also called mutant LIGHT; LIGHT^m
T1 sequence: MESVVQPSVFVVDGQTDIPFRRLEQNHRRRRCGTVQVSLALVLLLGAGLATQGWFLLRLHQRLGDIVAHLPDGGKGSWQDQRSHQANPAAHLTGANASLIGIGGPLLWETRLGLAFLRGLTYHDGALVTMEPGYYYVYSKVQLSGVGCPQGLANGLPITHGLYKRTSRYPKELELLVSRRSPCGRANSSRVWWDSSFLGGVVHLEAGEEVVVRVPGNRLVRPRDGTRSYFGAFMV
Experiment: flow cytometry and fluorescence microscopy, 293 cells expressing mutant murine LIGHT, stained with murine LTbR-Ig and a labelled anti-Ig
Protocol: 293 cells, a human kidney cell line, are commonly and easily used for transient expression of gene at relative high level of gene. 293 cells were seeded in 6 well plate and transfected with 2 μg DNA of pAdCMVmLIGHT (wild type murine LIGHT), pAdCMVmmLIGHT (mutant murine LIGHT) or pAdCMVcommLIGHT (codon optimized mutant murine LIGHT by GNENART, Berlin, Germany). Codon modification is to optimize gene codon to allow higher expression of protein without changing protein sequences. Transfection was performed using Lipofectmin 2000 reagent. 48 hours after transfection, cells were detached and incubated with recombinant mLTbR-huFc protein (10 μg/ml) followed by staining with PE conjugated Donkey anti-human IgG antisera. Cells were washed and analyzed by flowcytometry (BD FACSArray Bioanalyzer). Transfection were carried out in triplicates and only one representative result is shown. […] Cells were also examined visually by fluorescent microscopy. Representative results are shown in lower panel. (see FIG. 18). High expression of LIGHT is required to have stronger response. However, protease digestion of LIGHT often reduces its stability on cell surface.

B1: recombinant mLTbR-huFc protein (Fc fusion, mouse, UniProt P50284 31-223, looked up)
chain: QLVPPYRIENQTCWDQDKEYYEPMHDVCCSRCPPGEFVFAVCSRSQDTVCKTCPHNSYNEHWNHLSTCQLCRPCDIVLGFEEVAPCTSDRKAECRCQPGMSCVYLDNECVHCEEERLVLCQPGTEAEVTDEIMDTDVNCVPCKPGHFQNTSSPRARCQPHTRCEIQGLVEAAPGTSYSDTICKNPPEPGAMLL
notes: also called mouse LTbR-Ig; murine LTbR-Ig; not shown: human Fc
binding result: binds
